This passage reports stoichiometry N results from PMC9968290.

The target in test [1] is C-terminally truncated zebrafish ortholog of the TREK1 channel (drTREK1), residues 1-322, N95Q, N122Q (D. rerio (zebrafish)). The experiment in a line: native MS; TREK1 in 200 mM ammonium acetate pH 8, 0.25 mM DDM, without lipid or with 0.1 mg/ml POPA or 0.025 mg/ml POPE; static nanospray on a Q-Exactive EMR.
Test [2] shares this target. Briefly: cryo-EM structure; single particle cryo-EM of purified TREK1 at 3 mg/ml in DDM micelles (150 mM KCl, 20 mM Tris pH 8.0), without lipid or with POPA or POPE mixed micelles.

For the substance “C-terminally truncated zebrafish ortholog of the TREK1 channel (drTREK1), residues 1-322, N95Q, N122Q (natural protein)”, the stoichiometry N in test [1] and in test [2] was 2 each time.

The term stoichiometry N denotes the number of molecules, sites or subunits per partner or assembly.
